In US20110239311A1, “Agonists of NR2F6 For Immunosupression” (Medizinische Universitat Innsbruck, priority 2008, published 2011):

Key:
[1] = test system: CD4+ T cells; test: IL-2 secretion of transfected CD4+ T cells upon CD3 plus CD28 stimulation; assay type: cell-based, mouse; conditions: vs control transfection
Description: CD4+ T cells were negatively selected by magnetic cell sorting (Miltenyi Biotec). T cell populations were typically 95% CD4+, as determined by staining and flow cytometry. Cells were resuspended in solution from Nucleofactor mouse T cell kit and program X-01 following the Amaxa guidelines for cell-line transfection. In brief, up to 1×10^7 cells were mixed with 1.5 μM of synthetic ON-TARGETpIus siRNA predesigned by Dharmacon (i.e., order code 045088) as pool (see SEQ ID NOs: 19 to 26) or ON-TARGETplussiCONTROL nontargeting pool were nucleofected with the Amaxy Nucleofactor apparatus and immediately transferred into 37° C. prewarmed culture medium and cultured for a minimum of 24 hours before experimental analysis; see also FIG. 16.
Analysis of cytokine production: Cytokine production of mouse CD4^+ T cells after Th17 polarizing stimulation was assessed via the BioPlex technology (BioRad) according to manufacturer's instructions.

[2] = test system: NFAT/AP-1 promoter:luciferase reporter; test: NFAT/AP-1 promoter:luciferase reporter transrepression assay in Jurkat cells; assay type: cell-based, human; conditions: transient overexpression in Jurkat cells
Description: (§1) Jurkat-TAg cells (a kind gift from Dr. Crabtree, Stanford University, CA) have been transiently transfected with circular plasmid DNA by electroporation (BTX-T820 ElectroSquarePorator™, ITC, Biotech, Heidelberg, Germany), using predetermined optimal conditions (1×10^7 cells in 200 μl RPMI medium at 450 V/cm and 5 pulses of 99 msec), yielding approx. 40% transfection efficiency. NF-AT:AP-1 reporter gene expression was measured in transient cotransfection assays using 10 μg pSRα-CD28, 15 μg of the GFP or Nr2f6 expression vectors and 15 μg of the promoter firefly luciferase reporter (RLU1). The latter were a NF-AT:AP-1 composite site reporter (Macian et al., 2001), a NF-AT reporter construct containing three tandem copies of the NF-AT minimal consensus sequence and the proximal IL-17A promoter reporter (Liu et al., 2004). The proximal IL-17A promoter is also described elsewhere herein. After 21 h cells were stimulated with solid-phase CD3 and CD28 agonistic antibodies for 16 h or left unstimulated, as indicated and the firefly luciferase was measured employing the luciferase detection kit (Promega, Madison, Wis.) and the βJet-Luminometer (WALLAC, Turku, Finland).

[3] = test system: IL-17A promoter:luciferase reporter; test: IL-17A promoter:luciferase reporter transrepression assay in Jurkat cells; assay type: cell-based, human; conditions: transient overexpression in Jurkat cells
Description: as §1

[4] = molecular target: T1, NR2F6 (Homo sapiens, UniProt P10588); test: RARE containing renilla luciferase reporter assay in NR2F6 transfected Jurkat T cells; assay type: cell-based; conditions: CD3/CD28 with or without RA 20 microM
T1 construct: expressed in transfected cells; host or cells: Jurkat T cells (transient electroporation)
T1 sequence (P10588 1-404): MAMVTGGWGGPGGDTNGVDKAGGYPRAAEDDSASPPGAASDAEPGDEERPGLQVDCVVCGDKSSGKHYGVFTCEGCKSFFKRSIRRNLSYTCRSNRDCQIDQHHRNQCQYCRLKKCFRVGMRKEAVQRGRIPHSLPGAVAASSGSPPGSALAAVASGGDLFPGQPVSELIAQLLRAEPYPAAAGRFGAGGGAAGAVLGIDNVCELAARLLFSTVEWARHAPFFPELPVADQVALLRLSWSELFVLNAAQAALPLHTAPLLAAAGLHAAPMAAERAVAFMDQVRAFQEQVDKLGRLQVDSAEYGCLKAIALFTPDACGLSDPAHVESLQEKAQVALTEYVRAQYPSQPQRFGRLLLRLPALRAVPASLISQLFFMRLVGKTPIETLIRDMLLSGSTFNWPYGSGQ
Description: Jurkat T cells were maintained in RPMI medium supplemented with 10% FCS (Life Technologies, Inc.). Transient transfection of cells was performed by electroporation in a BTX-T820 ElectroSquarePorator (ITC, Biotech, Heidelberg, Germany) apparatus using predetermined optimal conditions: 2×10^7 cells at 450 V/cm and 5 pulses of 99 msec. Optimix medium (Equibio, Kent, UK) was used for studies of promoter reporter gene expression. Reporter gene expression was measured in co-transfection assays using 15 μg of the NR2F6 wild type or mutant expression vectors and 5 μg of the RARE containing renilla luciferase reporter vector pTK-Renilla-Luc (Promega, Medison, Wi). After 24 hrs cells were stimulated with solid phase CD3 and CD28 antibodies with or without retinoic acid (RA at 20 microM) for 16 hrs, as indicated.

[5] = molecular target: T2, NR2F6-ER (UniProt P10588+P19785, G525R); test: NF-AT/AP-1 promoter luciferase reporter assay in NR2F6-ER transfected Jurkat T cells; assay type: cell-based, human; conditions: transiently transfected Jurkat T cells
T2 construct: expressed in transfected cells; host or cells: Jurkat T cells (transient electroporation)
Description: Jurkat T cells were maintained in RPMI medium supplemented with 10% FCS (Life Technologies, Inc.). Transient transfection of cells was performed by electroporation in a BTX-T820 ElectroSquarePorator (ITC, Biotech, Heidelberg, Germany) apparatus using predetermined optimal conditions: 2×10^7 cells at 450 V/cm and 5 pulses of 99 msec. Optimix medium (Equibio, Kent, UK) was used for studies of promoter reporter gene expression. Reporter gene expression was measured in co-transfection assays using 15 μg of the NR2F6 wild-type or mutant expression vectors and 15 μg of the AP-1/NF-AT promoter firefly luciferase reporter (RLU1). For normalization 0.3 μg of the renilla luciferase reporter vector pTK-Renilla-Luc (Promega, Medison, Wi) (RLU2) has been used.
T2 sequence (P10588+P19785 with tags, fused parts or gaps P19785:G525R): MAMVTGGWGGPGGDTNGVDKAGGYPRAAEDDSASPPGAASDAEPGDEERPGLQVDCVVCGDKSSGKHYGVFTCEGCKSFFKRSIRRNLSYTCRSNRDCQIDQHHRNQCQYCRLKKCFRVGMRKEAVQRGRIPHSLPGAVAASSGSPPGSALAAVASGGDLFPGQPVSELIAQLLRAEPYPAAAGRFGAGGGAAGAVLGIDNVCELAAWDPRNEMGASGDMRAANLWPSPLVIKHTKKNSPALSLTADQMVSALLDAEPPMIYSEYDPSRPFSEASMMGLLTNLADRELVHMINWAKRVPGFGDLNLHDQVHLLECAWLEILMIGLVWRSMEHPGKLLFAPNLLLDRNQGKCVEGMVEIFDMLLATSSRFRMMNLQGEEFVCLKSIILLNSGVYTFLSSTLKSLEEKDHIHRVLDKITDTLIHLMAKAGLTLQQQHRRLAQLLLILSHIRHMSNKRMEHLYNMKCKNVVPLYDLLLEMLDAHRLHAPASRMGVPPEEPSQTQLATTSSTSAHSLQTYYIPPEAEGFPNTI

B1: NR2F6: recombinant overexpressed nuclear receptor subfamily 2, group F, member 6 (Ear2), SEQ ID NO: 2 (protein, listed as Homo sapiens)
chain: MAMVTGGWGGPGGDTNGVDKAGGYPRAAEDDSASPPGAASDAEPGDEERPGLQVDCVVCGDKSSGKHYGVFTCEGCKSFFKRSIRRNLSYTCRSNRDCQIDQHHRNQCQYCRLKKCFRVGMRKEAVQRGRIPHSLPGAVAASSGSPPGSALAAVASGGDLFPGQPVSELIAQLLRAEPYPAAAGRFGAGGGAAGAVLGIDNVCELAARLLFSTVEWARHAPFFPELPVADQVALLRLSWSELFVLNAAQAALPLHTAPLLAAAGLHAAPMAAERAVAFMDQVRAFQEQVDKLGRLQVDSAEYGCLKAIALFTPDACGLSDPAHVESLQEKAQVALTEYVRAQYPSQPQRFGRLLLRLPALRAVPASLISQLFFMRLVGKTPIETLIRDMLLSGSTFNWPYGSGQ
IL-2 cytokine secretion [1]: significantly suppresses IL-2 secretion responses
trans-repression of CD3/CD28 activation-induced NFAT/AP-1 promoter:luciferase reporter [2]: robust and reproducible trans-repression
trans-repression of CD3/CD28 activation-induced IL-17A promoter:luciferase reporter [3]: robust and reproducible trans-repression

B2: S83E: S83E mutant of NR2F6, Ser-83 phospho-mimic, DNA-binding deficient, SEQ ID NO: 8 (protein, listed as Homo sapiens)
chain: MAMVTGGWGGPGGDTNGVDKAGGYPRAAEDDSASPPGAASDAEPGDEERPGLQVDCVVCGDKSSGKHYGVFTCEGCKSFFKREIRRNLSYTCRSNRDCQIDQHHRNQCQYCRLKKCFRVGMRKEAVQRGRIPHSLPGAVAASSGSPPGSALAAVASGGDLFPGQPVSELIAQLLRAEPYPAAAGRFGAGGGAAGAVLGIDNVCELAARLLFSTVEWARHAPFFPELPVADQVALLRLSWSELFVLNAAQAALPLHTAPLLAAAGLHAAPMAAERAVAFMDQVRAFQEQVDKLGRLQVDSAEYGCLKAIALFTPDACGLSDPAHVESLQEKAQVALTEYVRAQYPSQPQRFGRLLLRLPALRAVPASLISQLFFMRLVGKTPIETLIRDMLLSGSTFNWPYGSGQ
modifications: VARIANT (83)..(83) S83E mutation
trans-repression of CD3/CD28 activation-induced NFAT/AP-1 promoter:luciferase reporter [2]: not able to suppress
trans-repression of CD3/CD28 activation-induced IL-17A promoter:luciferase reporter [3]: not able to suppress
transcriptional repressor activity (RARE reporter) [4]: lost its transcriptional repressor activity

B3: C112S: C112S zinc finger mutant of NR2F6, defective in DNA binding, SEQ ID NOs: 30 and 31 (protein)
chain: MAMVTGGWGGPGGDTNGVDKAGGYPRAAEDDSASPPGAASDAEPGDEERPGLQVDCVVCGDKSSGKHYGVFTCEGCKSFFKRSIRRNLSYTCRSNRDCQIDQHHRNQCQYSRLKKCFRVGMRKEAVQRGRIPHSLPGAVAASSGSPPGSALAAVASGGDLFPGQPVSELIAQLLRAEPYPAAAGRFGAGGGAAGAVLGIDNVCELAARLLFSTVEWARHAPFFPELPVADQVALLRLSWSELFVLNAAQAALPLHTAPLLAAAGLHAAPMAAERAVAFMDQVRAFQEQVDKLGRLQVDSAEYGCLKAIALFTPDACGLSDPAHVESLQEKAQVALTEYVRAQYPSQPQRFGRLLLRLPALRAVPASLISQLFFMRLVGKTPIETLIRDMLLSGSTFNWPYGSGQ
modifications: /note=“Description of artificial sequence amino acid sequence of C112S mutated NR2F6”
trans-repression of CD3/CD28 activation-induced NFAT/AP-1 promoter:luciferase reporter [2]: lost its transcriptional repressor activity
trans-repression of CD3/CD28 activation-induced IL-17A promoter:luciferase reporter [3]: lost its transcriptional repressor activity
transcriptional repressor activity (RARE reporter) [4]: lost its transcriptional repressor activity

B4: NR2F2 wild type: the closest relative of NR2F6, used as control (protein, UniProt P24468 1-414, looked up)
COUP transcription factor 2: MAMVVSTWRDPQDEVPGSQGSQASQAPPVPGPPPGAPHTPQTPGQGGPASTPAQTAAGGQGGPGGPGSDKQQQQQHIECVVCGDKSSGKHYGQFTCEGCKSFFKRSVRRNLSYTCRANRNCPIDQHHRNQCQYCRLKKCLKVGMRREAVQRGRMPPTQPTHGQFALTNGDPLNCHSYLSGYISLLLRAEPYPTSRFGSQCMQPNNIMGIENICELAARMLFSAVEWARNIPFFPDLQITDQVALLRLTWSELFVLNAAQCSMPLHVAPLLAAAGLHASPMSADRVVAFMDHIRIFQEQVEKLKALHVDSAEYSCLKAIVLFTSDACGLSDVAHVESLQEKSQCALEEYVRSQYPNQPTRFGKLLLRLPSLRTVSSSVIEQLFFVRLVGKTPIETLIRDMLLSGSSFNWPYMAIQ
trans-repression of CD3/CD28 activation-induced NFAT/AP-1 promoter:luciferase reporter [2]: not able to suppress
trans-repression of CD3/CD28 activation-induced IL-17A promoter:luciferase reporter [3]: not able to suppress

B5: NR2F6-ER: conditionally activated NR2F6 estrogen-receptor ligand binding domain mutant (ERmut-LBD) fusion protein, SEQ ID NO: 10 (protein)
chain: MAMVTGGWGGPGGDTNGVDKAGGYPRAAEDDSASPPGAASDAEPGDEERPGLQVDCVVCGDKSSGKHYGVFTCEGCKSFFKRSIRRNLSYTCRSNRDCQIDQHHRNQCQYCRLKKCFRVGMRKEAVQRGRIPHSLPGAVAASSGSPPGSALAAVASGGDLFPGQPVSELIAQLLRAEPYPAAAGRFGAGGGAAGAVLGIDNVCELAWDPRNEMGASGDMRAANLWPSPLVIKHTKKNSPALSLTADQMVSALLDAEPPMIYSEYDPSRPFSEASMMGLLTNLADRELVHMINWAKRVPGFGDLNLHDQVHLLECAWLEILMIGLVWRSMEHPGKLLFAPNLLLDRNQGKCVEGMVEIFDMLLATSSRFRMMNLQGEEFVCLKSIILLNSGVYTFLSSTLKSLEEKDHIHRVLDKITDTLIHLMAKAGLTLQQQHRRLAQLLLILSHIRHMSNKGMEHLYNMKCKNVVPLYDLLLEMLDAHRLHAPASRMGVPPEEPSQTQLATTSSTSAHSLQTYYIPPEAEGFPNTI
modifications: /note=“Description of artificial sequence amino acid sequence of NR2F6 wild-type Er-LBD fusion mutant”
CD3/CD28-induced NF-AT/AP-1 composite element-dependent reporter [5]: repressed
